The nature of the data set: label from the status in PepcDB records.

As to “MVTQNKLKKLVLGLSLIAASSAAMATTDTAKPNILAIWGDDIGPFNISAYNRGIMGYKTPNIDRIANEGIIFTDSYGDQSCTAGRAGFITGQHPMRTGLTKVGLPGAKEGLNKKDPTIAELLKPHGYMTGQFGKNHLGDQDEHLPTNHGFDEFFGNLYHLNAEDEPEHPDYPKDPAFKKRFGPRGAIHSFADGKITDTGPVTKKRMETIDEEFLGAALKFIDKAHAAKKPFFVWFNSTRMHVWTRLKPESDGVTGQGLYADGMVEHDGHVGQLLDKIDKLGIAENTIIMYTTDNGAELALWPDGGYTPFRGEKNTNWEGGYRVPMMVKWAGKIKPNQVSNEMISLIDWMPTILAVAGDTNIKSKLKKGTNVGGTKFKVHLDGYNFLPHFLDTTKEGPRKEFIYSSDTGDIVGLRYEDYKFVFKEQRAHGLEVWQNPWTTLRAPKIFNLRMDPYERMDHESEGYGQWWAEHMFLMAPAMMKVAQFKATFKEFPQRQKPGSFVP”, the protein production entry is “failed”.
The same measure for “MVTSSSMRRCRGALSLSFWIFLVLRSVLSRPVFGAAAGPAVQSARQCSASRGTGESDPPPFQPTLRLFPPSRRRRSYCRAMTPSRPSPDFPDGGFVQVRGARQHNLKDISVKVPRDALVVFTGVSGSGKSSLAFGTLYAEAQRRYLESVSPYARRLFNQAGVPDVDAIDGLPPAVALQQARGTPTARSSVGSVTTLSNLLRMLYSRAGDYPPGQGIVYAEGFSPNTPEGACPECHGLGRVYTVTEDSMVPDPSLTIRERAVAAWPQAWGGQNQRDILVTLGIDVDVPWRELPEETRHWILFTDEQPVVPVYPGLTPAETQRALKKKMEPSYMGTFSSARRHVLHTFANTESASMKKRVQGYMISEECPLCHGKRLRQEALNVTFAGLDITELSRLPLARVSELLRPYAEEREPGHAERVKNRPEQAIALQRMAADLVKRLDVLLHLGLGYLGLDRSTPTLSPGELQRLRLATQLYSNLFGVVYVLDEPSAGLHPADTEALLSALENLKRGGNSLFVVEHDLDVIRRADWLVDVGPEAGEKGGEILYSGPPEGLKHVPESQTGQYLFADRHTEPHTPREPAGWLELNGVTRNNLDNLDVRFPLGVMTSVTGVSGSGKSTLVSQALVDALAAHFGQPVNPDPEDDEDPADHTAGSARLGGDLAQITRLVRVDQKPIGRTPRSNMATYTGLFDQVRKLFAATPLAKKRGYNAGRFSFNVKGGRCEHCQGEGWVMVELLFLPSVYAPCPVCHGTRYNAETLEVEYRGKNIADVLALTVDEAHDFFADESAIFRALDTLREVGLGYLRLGQPATELSGGEAQRIKLATELQRSGRGGTVYVLDEPTTGLHPADVERLQRQLVKLVDAGNTVIAVEHKMQVVAASDWVLDIGPGAGEDGGRLVAQGTPAEVAQAAGSVTAPYLRAALR”: “failed”; for “MVTSTELTGQTAGVPDAGLVERALAYVREKADGEKPTTLPTGETVLSHAEGMLRILDGLRVDDAARAAACLFPMVAFVPGVEAHIEERFGEDVARLVKGVRQLLRIGAIATQAEAVETSKSQAAARQEQVEALRKMLLAFAQDIRVVLVRLASRLQTLRWLAQTKSQPLPGVARETLDIYAPLANRLGIWQMKWELEDLAFRFEQPETYKRIAKLLDEKRIEREGYISQAIARLQSELAAAGIRAEVTGRPKHIYSIWKKMRGKALDFADLYDVRAFRVIVDDIKDCYTVLGIVHHIWQPIPREFDDYISRPKANGYKSLHTVVIGDDGRAFEVQIRTHEMHHFAEYGVAAHWRYKEAGGKGYSGQFTADNSYDEKIAWLRQLLAWKDDADHTVTHEDSPWEQLKHAAIDDHIYVLTPQARVVALPQGATPVDFAYYLHSDLGHRCRGARVDGAMVPLNTPLKNGQTVEIVAVKQGGPSRDWLNPELGYLASSRARAKVRAWFNALDSQETIAQGRALIEKTLQREGKTAVNLDDLATRLNFKTPDDLFAAVAKEEFSLRHVEQALRHPDGEVQPQFSEEEAVTKKSRATSVARGAKSGVLVVGVDSLMTQMSRCCKPAPPDDIVGFVTRGRGVSIHRRNCHTFQQLSTRDPERVIQTEWGKRSDAVYPVDIQVEAIDRQGLLRDISEVLSREKINVTGVKTLSSKGVARMQFTAEVAEATQLQRAISLIEEVQGVLHAKRK”: “failed”.
In the case of “MVTSVSALAVAVVHSVAFAIGRRIGRYNVVDVVWGLGFVAVAVAAATLGHGDPVRRWLLLALVSTWGLRLSWHMYRKTAGQGEDPRYADLLRGATPVQALRKVFGLQGLLTLFVSFPLQLSAVTGPTPKPLLAVGGVGLAVWLVGITFEAVGDWQLWVFKSDPANRGVIMDRGLWAWTRHPNYFGDACVWWGLWLITINDWAPLATVGSPLLMTYLLVDVSGARLTERYLKGRPGFAEYQRRTAYFVPRPPRSARR”, the protein production result is recorded as “failed”.
As for “MVTVVVPAHNEDVVIAQTAKAILDMKYPRDKLEIILFADNCEDNTYQEMQSIKALPQYADRDLTLINRSGTGGKAGVLNDALKIAKGDYICVYDADAMPEKNALYFLVQKVMEDPERHVAAFGRNKTRNANQNFLTRCINQEIVVTQRIQHVGMWHLGKIGRIPGTNFIINTEFVKSIGGWRNGALTEDTDISFKIMQSGKLIALAYNSEAFQQEPETLKSYYLQRKRWAKGNYEVVIANFKHLFGRGNWRVKWEVFYYTCTFFWFNAAIVLSDILFFSNLIALIIGLFKPGVQVPFAFDANNIYMAQLLLFNWFLMILLYLLQISISQATQYGQATVKQIWIALLAYFTYTQLFIIVSISSVASVMMDKILHREGTKWVKTKRFAG”, the protein production entry is on record as “failed”.
The same measure for “MVTYSTFIVIAIYLILTILISWFVNQRSIGNTDFSTGGRQFGWFTAGVSILATYISAMTFIGMPGWVYQSGMEALNIHLNYPIVIFFAVVFFIPVFYRMGFTSIYEYLEHRFGVYARTINSVVFILVQCISSGVILYAIALILIQILPISIVEAIVYITLFTACYTYAGGISTVIWTDMLQSAVLIAGSVAIFVLLLLQVDGVHGVSREQLNIINLQFDLGVDTTLWAGVVAVSFLHMSVYGTNQLIIQRTLATRCEKTAQKSMLLCGYGAFFIYFFFALLGVLLSIFYQERHFTNSNEVILDFVFHHTNPWVIGLIISALAAAAMSTLDSTYNSMATVATFDLYQRFIRRNAPDHHYQAVARKMSLVAAGLVVIPALLAVSNESVLKTIASLTSIFVGIRLGSFVLGLFSNQANEKGVIAGSIISIAAVLGARLMDIAWPWFAPIGTVFFLVSGVVISRYWGDNSIQQQAFIARQKHLFATPTMSQYGLLVFAAVTIAVCAIIPDWLYNALS”: “failed”; for “MVVDSVTMEEEDTKEEAAMVATEGEDTKEEEDDTKEAVGDKEEGEVTAATAAATKVTMAAQGVVHMPEKRFRLSLVTKST”: “failed”; for “MVVIDPTLLGILACPQDKGPLLLVGDELLYNPRLRRAYPIENGIPVLLIDEARDVGADEHETLLARAAGEA”: “not failed”.
To “MVVSIITPLYKVEDFIARCADSLFRQSYTEIEYIFVDDCSSDRSVEVLLQVAERYPQLQQQIRILHHESNRGVAAARETGLAAATGEYVYWVDADDWIEPDAIEKMVVRSEQGQKDIIACGWYLCFRQNERRMPMPCYADAETALRGMLSGTMRWNLWLYMIKRDLYLMNDIHFMEGENVGEDMLVLIKLFSHAKSIGFVKDAFYHYVKQNENSLTRLSPEQQMKRQMRNLQAATDYLVTHFIGKYEKEINFFKLNAKMPLLISNDKNSYRTWTACFPEANKYIMANKRQTLRMRLVQLMAAKRQFWLVELYYQLVFKFVYGILYK” belongs “failed”; to “MVVVCASHIQPAIICRFTWLRFLMEIILIRHGKPTSANNPVLNAVDFTKWVRRYNFSDVSTNSRPDSILDEYKSHYIVSSDLERAIHSASIYTGQSPELTSKLYREMEIPRYKFPLRFKAMTWVYINRAFWMLGLKGSFESYRQAKIRAELASDHLVELAREQDKVILFGHGYLNLHIRRSLIKKGWKLNSKSNGFWGISSLEG”, “failed”.
The same measure for “MVVVCASHIQPAIICRFTWLRFLMEIILIRHGKPTSANNPVLNAVDFTKWVRRYNFSDVSTNSRPDSILDEYKSHYIVSSDLERAIHSASIYTGQSPELTSKLYREMEIPRYKFPLRFKAMTWVYINRAFWMLGLKGSFESYRQAKIRAELASDHLVELAREQDKVILFGHGYLNLHIRRSLIKKGWKLNSKSNGFWGISSLEGLEHHHHHH”: “failed”.

Source of the values: a protein production outcome set (Wang et al. 2014).
